Data reported in the RNAGym collection of RNA variant scans (doi:10.7554/elife.80360).

B1: HDV Ribozyme (parent)
chain: GGCCGGCAUGGUCCCAGCCUCCUCGCUGGCGCCGGCUGGGCAACAUUCCGAGGGGACCGUCCCCUCGGUAAUGGCGAAUGGGACCCA

Variants of: B1
Assay: self-cleavage, relative activity (ratio to wild type); higher = more cleavage; co-transcriptional

Variant	self-cleavage
A42C G82A	0.107
A42C G82U	0.138
A42C G82C	0
A42C G68C	0.198
A42G G68U	0.403
A42G G68A	0.441
A42C A78C	0.169
A42C A78U	0.0449
C41U A42U	0.831
C41U A42C	0.519
C41U A42G	0.872
C41U C85U	0.845
C41U G59U	0.937
C41U G59C	0.963
C41U G59A	1
A42G C84G	0.314
A42U C64A	0.639
C41G G81A	0.188
C41U C44U	0.516
A42C C84A	0.17
A42G C44G	0
A42U G76C	0.639
A42U G76A	0.764
A42C G81A	0.104

Variant	self-cleavage
A42C G81U	0.16
A42C C64U	0.208
A42C C64A	0.212
A42G U47G	0.7
A42C A45G	0.465
A42C G67C	0.17
A42C G67A	0.249
A42C C85U	0.415
C41U A71U	0.897
C41G G59C	0.919
C41G G59A	0.758
A42U	0.529
A42C	0.333
A42G	0.562
A42G A70U	0.365
C41G U69G	0.755
C41G C75U	0.095
C41G C75A	0.353
C41G C75G	0.219
C41U U65A	0.92
C41G G74A	0.486
C41G G74C	0.119
C41G G74U	0.47
A42C G53A	0.289

Variant	self-cleavage
A42G C57U	0.527
A42G U65G	0.536
A42G U65A	0.703
A43C	0.498
A42C G54U	0.312
A42C G54C	0.269
C41U G81A	0.237
C41U G81C	0.168
C41U G81U	0.205
A42U G54A	0.441
A42U G54C	0.381
A42G G54C	0.614
A42G G54A	0.567
C41U A70U	0.936
A42C C62G	0.0898
A42C C62U	0.157
A42G C85U	0.767
A42G C85A	0.745
C41U G74A	0.637
A42G C49A	0.302
A42G C49U	0.489
A42G C49G	0.358
C41G U65A	0.987
C41G U65G	0.692

Variant	self-cleavage
A42G A56C	0.54
A42G A56U	0.698
A42G A56G	0.516
A42C U72G	0.256
C41U A51G	0.914
A42U G50U	0.727
A42U G50C	0.285
A42U G55C	0.87
A42U G59U	0.595
A42U G59C	0.422
A42U G59A	0.845
A42U U60A	0.665
A42C G50U	0.386
A42C G50C	0.375
C41U A83U	0.583
C41U A83C	0.332
C41U G82C	0.136
C41U A45C	0.569
A42C C57G	0.237
A42C C57U	0.203
A42U C48A	0.485
A42U C48U	0.506
A42C U60A	0.189
A42C U60C	0.35

Variant	self-cleavage
A42C U60G	0.269
A42C C49A	0.262
A42C C49U	0.115
A42G A78U	0.162
A42C G76A	0.113
A42C G76C	0.277
C41U C84A	0.78
A42G U72G	0.35
A42G U72C	0.475
A42C A70C	0.0875
A42C A70U	0.312
A42G G82C	0.0396
A42G G82U	0.0504
A42U C86U	0.58
A42C C61G	0.269
A42C C61A	0.312
A42C C61U	0.199
A42G C75G	0
A42G G73U	0.147
A42G G73A	0.192
C41U C63G	0.739
C41U C86A	1.04
C41U C86G	0.784
A42U G73C	0.267

Variant	self-cleavage
C41G G54A	0.831
A42U G74U	0.277
A42G U79A	0.573
A42C C63A	0.277
A42C C63G	0.208
A42G C58U	0.617
A42G C58G	0.554
A42U A87U	0.56
C41U G67C	0.554
C41U G67U	0.604
C41U G67A	0.439
A42C G74U	0.0733
A42C G74A	0.0652
A42U C49A	0.53
A42U C49G	0.312
A42U C75U	0.0665
A42U C75G	0.125
A42U C57G	0.489
A42U C57U	0.428
A42C G59A	0.213
A42C G59U	0.424
C41U G53C	1.05
C41U G53U	1.1
C41G G67C	0.678

Variant	self-cleavage
C41G G67U	0.48
C41U A78C	0.178
C41U A78U	0.199
C41G C66G	0.831
C41G C66A	0.96
C41U A77G	0.95
C41U A77C	0.341
C41U A77U	0.475
C41G G82U	0.157
A42G A87C	0.521
A42G A87U	0.479
C41U U60G	1.1
C41G U60C	0.997
C41G U60G	0.72
C41U A56U	1.09
C41U A56G	0.7
C41G G50U	0.708
A42C A43C	0
A42C A43U	0.122
A42C A43G	0.0898
C41G C84G	0.665
C41G C84U	0.456
C41G C84A	0.508
